The supplement of paper PMC10567573

B1: IKZF1 (parent)
chain: RDPFECNMCGYHSQDRYEFSSHIT

Variants of: B1
Assay: protein stability index of a GFP-peptide fusion (GPS, HEK-293T) (PSI 1-6); higher = more stable
Settings: c terminus: a fixed tail appended
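Note: lentivirally expressed fusions sorted by FACS into six bins by GFP to DsRed ratio, PSI derived from sequencing read proportions per bin multiplied by bin number.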

Going from RDPFECNMCGYPSQDRYEFSSHIT [H12P] to RDPFECNMCGYVSQDRYEFSSHIT [H12V], the protein stability index falls from 2.49 to 1.75.

First: RDPFECNMCGYWSQDRYEFSSHIT [H12W]
Second: RDPFECNMCGYMSQDRYEFSSHIT [H12M]
The protein stability index of the first is higher: 1.63 for the first, 1.5 for the second.

First: RDPFECNMCGYYSQDRYEFSSHIT [H12Y]
Second: RDPFECNMCGYASQDRYEFSSHIT [H12A]
The protein stability index of the first is lower: 1.97 for the first, 2.6 for the second.

First: RDPFECNMCGYLSQDRYEFSSHIT [H12L]
Second: RDPFECNMCGYTSQDRYEFSSHIT [H12T]
The protein stability index of the first is higher: 2.69 for the first, 2.53 for the second.

First: RDPFECNMCGYNSQDRYEFSSHIT [H12N]
Second: RDPFECNMCGYISQDRYEFSSHIT [H12I]
The protein stability index of the first is higher: 2.72 for the first, 2 for the second.

Going from RDPFECNMCGYRSQDRYEFSSHIT [H12R] to RDPFECNMCGYGSQDRYEFSSHIT [H12G], the protein stability index rises from 2.23 to 2.25.

Compared with RDPFECNMCGYFSQDRYEFSSHIT [H12F], RDPFECNMCGYCSQDRYEFSSHIT [H12C] is lower in protein stability index: 2.15 for the first, 1.82 for the second.

First: RDPFECNMCGYDSQDRYEFSSHIT [H12D]
Second: RDPFECNMCGYQSQDRYEFSSHIT [H12Q]
The protein stability index of the first is lower: 2.69 for the first, 3.01 for the second.

First: RDPFECNMCGYESQDRYEFSSHIT [H12E]
Second: RDPFECNMCGYSSQDRYEFSSHIT [H12S]
The protein stability index of the first is higher: 2.39 for the first, 2.06 for the second.

First: RDPFECNMCGYHMQDRYEFSSHIT [S13M]
Second: RDPFECNMCGYHDQDRYEFSSHIT [S13D]
The protein stability index of the first is lower: 1.66 for the first, 2.49 for the second.

Compared with RDPFECNMCGYHTQDRYEFSSHIT [S13T], RDPFECNMCGYHGQDRYEFSSHIT [S13G] is higher in protein stability index: 2.1 for the first, 2.17 for the second.

Going from RDPFECNMCGYHEQDRYEFSSHIT [S13E] to RDPFECNMCGYHFQDRYEFSSHIT [S13F], the protein stability index falls from 2.53 to 1.78.

First: RDPFECNMCGYHQQDRYEFSSHIT [S13Q]
Second: RDPFECNMCGYHYQDRYEFSSHIT [S13Y]
The protein stability index of the first is higher: 2.39 for the first, 1.92 for the second.

Going from RDPFECNMCGYHRQDRYEFSSHIT [S13R] to RDPFECNMCGYHHQDRYEFSSHIT [S13H], the protein stability index rises from 2.04 to 3.15.

Compared with RDPFECNMCGYHLQDRYEFSSHIT [S13L], RDPFECNMCGYHIQDRYEFSSHIT [S13I] is higher in protein stability index: 1.75 for the first, 1.91 for the second.

First: RDPFECNMCGYHWQDRYEFSSHIT [S13W]
Second: RDPFECNMCGYHAQDRYEFSSHIT [S13A]
The protein stability index of the first is higher: 2.28 for the first, 2.26 for the second.

First: RDPFECNMCGYHPQDRYEFSSHIT [S13P]
Second: RDPFECNMCGYHKQDRYEFSSHIT [S13K]
The protein stability index of the first is higher: 3 for the first, 2.1 for the second.

Going from RDPFECNMCGYHCQDRYEFSSHIT [S13C] to RDPFECNMCGYHVQDRYEFSSHIT [S13V], the protein stability index rises from 1.74 to 1.91.

First: RDPFECNMCGYHNQDRYEFSSHIT [S13N]
Second: RDPFECNMCGYHSSDRYEFSSHIT [Q14S]
The protein stability index of the first is lower: 2.39 for the first, 2.43 for the second.

Compared with RDPFECNMCGYHSWDRYEFSSHIT [Q14W], RDPFECNMCGYHSFDRYEFSSHIT [Q14F] is higher in protein stability index: 1.22 for the first, 1.47 for the second.

Going from RDPFECNMCGYHSIDRYEFSSHIT [Q14I] to RDPFECNMCGYHSDDRYEFSSHIT [Q14D], the protein stability index falls from 2.13 to 2.09.

Compared with RDPFECNMCGYHSNDRYEFSSHIT [Q14N], RDPFECNMCGYHSPDRYEFSSHIT [Q14P] is lower in protein stability index: 2.42 for the first, 2.3 for the second.

Compared with RDPFECNMCGYHSVDRYEFSSHIT [Q14V], RDPFECNMCGYHSLDRYEFSSHIT [Q14L] is higher in protein stability index: 1.85 for the first, 1.93 for the second.

First: RDPFECNMCGYHSTDRYEFSSHIT [Q14T]
Second: RDPFECNMCGYHSKDRYEFSSHIT [Q14K]
The protein stability index of the first is higher: 2.17 for the first, 1.97 for the second.

First: RDPFECNMCGYHSEDRYEFSSHIT [Q14E]
Second: RDPFECNMCGYHSCDRYEFSSHIT [Q14C]
The protein stability index of the first is higher: 2.29 for the first, 1.87 for the second.

Compared with RDPFECNMCGYHSHDRYEFSSHIT [Q14H], RDPFECNMCGYHSGDRYEFSSHIT [Q14G] is higher in protein stability index: 2.22 for the first, 2.38 for the second.

First: RDPFECNMCGYHSMDRYEFSSHIT [Q14M]
Second: RDPFECNMCGYHSADRYEFSSHIT [Q14A]
The protein stability index of the first is lower: 1.86 for the first, 1.98 for the second.

Going from RDPFECNMCGYHSYDRYEFSSHIT [Q14Y] to RDPFECNMCGYHSRDRYEFSSHIT [Q14R], the protein stability index falls from 2.31 to 2.25.

Going from RDPFECNMCGYHSQDRMEFSSHIT [Y17M] to RDPFECNMCGYHSQDRCEFSSHIT [Y17C], the protein stability index rises from 2.16 to 2.38.

First: RDPFECNMCGYHSQDRLEFSSHIT [Y17L]
Second: RDPFECNMCGYHSQDRPEFSSHIT [Y17P]
The protein stability index of the first is lower: 2.22 for the first, 2.81 for the second.

Going from RDPFECNMCGYHSQDRQEFSSHIT [Y17Q] to RDPFECNMCGYHSQDREEFSSHIT [Y17E], the protein stability index rises from 2.1 to 3.

Going from RDPFECNMCGYHSQDRHEFSSHIT [Y17H] to RDPFECNMCGYHSQDRREFSSHIT [Y17R], the protein stability index falls from 2.81 to 2.1.

First: RDPFECNMCGYHSQDRAEFSSHIT [Y17A]
Second: RDPFECNMCGYHSQDRVEFSSHIT [Y17V]
The protein stability index of the first is higher: 2.28 for the first, 1.76 for the second.

Going from RDPFECNMCGYHSQDRGEFSSHIT [Y17G] to RDPFECNMCGYHSQDRKEFSSHIT [Y17K], the protein stability index rises from 2.19 to 2.21.

Going from RDPFECNMCGYHSQDRWEFSSHIT [Y17W] to RDPFECNMCGYHSQDRFEFSSHIT [Y17F], the protein stability index falls from 2.54 to 2.07.

Going from RDPFECNMCGYHSQDRNEFSSHIT [Y17N] to RDPFECNMCGYHSQDRTEFSSHIT [Y17T], the protein stability index falls from 2.83 to 1.89.

Going from RDPFECNMCGYHSQDRSEFSSHIT [Y17S] to RDPFECNMCGYHSQDRDEFSSHIT [Y17D], the protein stability index rises from 2.43 to 3.1.

Compared with RDPFECNMCGYHSQDRIEFSSHIT [Y17I], RDPFECNMCGYHSQDHYEFSSHIT [R16H] is higher in protein stability index: 2.16 for the first, 2.51 for the second.

First: RDPFECNMCGYHSQDCYEFSSHIT [R16C]
Second: RDPFECNMCGYHSQDPYEFSSHIT [R16P]
The protein stability index of the first is lower: 2.23 for the first, 2.5 for the second.

First: RDPFECNMCGYHSQDAYEFSSHIT [R16A]
Second: RDPFECNMCGYHSQDQYEFSSHIT [R16Q]
The protein stability index of the first is lower: 2.3 for the first, 2.33 for the second.

Compared with RDPFECNMCGYHSQDWYEFSSHIT [R16W], RDPFECNMCGYHSQDYYEFSSHIT [R16Y] is lower in protein stability index: 2.03 for the first, 1.75 for the second.

Going from RDPFECNMCGYHSQDKYEFSSHIT [R16K] to RDPFECNMCGYHSQDDYEFSSHIT [R16D], the protein stability index rises from 2.01 to 2.85.

First: RDPFECNMCGYHSQDSYEFSSHIT [R16S]
Second: RDPFECNMCGYHSQDVYEFSSHIT [R16V]
The protein stability index of the first is lower: 1.98 for the first, 2.42 for the second.

Compared with RDPFECNMCGYHSQDTYEFSSHIT [R16T], RDPFECNMCGYHSQDLYEFSSHIT [R16L] is lower in protein stability index: 2.6 for the first, 2.12 for the second.

Compared with RDPFECNMCGYHSQDMYEFSSHIT [R16M], RDPFECNMCGYHSQDIYEFSSHIT [R16I] is lower in protein stability index: 2.78 for the first, 2.74 for the second.

Compared with RDPFECNMCGYHSQDGYEFSSHIT [R16G], RDPFECNMCGYHSQDEYEFSSHIT [R16E] is higher in protein stability index: 2.56 for the first, 3.15 for the second.

Going from RDPFECNMCGYHSQDNYEFSSHIT [R16N] to RDPFECNMCGYHSQDFYEFSSHIT [R16F], the protein stability index falls from 2.57 to 2.21.
